The assay addresses recombinant human protease-activated receptor 1 with GST tag (GST-PAR1) (human) (UniProt P25116). As to the kind of experiment: SPR; BIAcore X100; GST-PAR1 (10 ug/mL) captured on anti-GST antibody immobilised on a CM5 chip (about 854 RU); running buffer 50 mM Hepes pH 7.0, 0.01% CHS, 0.1% CHAPS, 0.33 mM DOPC:DOPS; captured GST as blank; analytes injected at 125 to 1000 nM, 30 uL/min; single site model.

Broadly, the Kd is the concentration at which binding is half-saturated.

GARASVLSGGELDRWEKIRL [F1 peptide (p17 N-terminal sequence, aa 2 to 21)]: the Kd is 46 nM.

For the origin of these results see PMC8203498.
